“Also recorded” adds a separate entry of the source.
B1: N domains of sLZIP: N-terminal deletion mutant of sLZIP (1-228) (protein)
chain: MELELDAGDQDLLAFLLEESGDLGTAPDEAVRAPLDWALPLSEVPSDWEVDDLLCSLLSPPASLNILSSSNPCLVHHDHTYSLPRETVSMDLESESCRKEGTQMTPQHMEELAEQEIARLVLTDEEKSLLEKEGLILPETLPLTKTEEQILKRVRRKIRNKRSAQESRRKKKVYVGGLESRVLKYTAQNMELQNKVQLLEEQNLSLLDQLRKLQAMVIEISNKTSSSS
modifications: left off: a dimerising Fc or GST
B2: sLZIP: human small leucine-zipper protein, isoform of LZIP, 354 amino acids, no transmembrane domain, GenBank FJ263669, SEQ ID NO: 1 (protein, listed as Homo sapiens)
chain: MELELDAGDQDLLAFLLEESGDLGTAPDEAVRAPLDWALPLSEVPSDWEVDDLLCSLLSPPASLNILSSSNPCLVHHDHTYSLPRETVSMDLESESCRKEGTQMTPQHMEELAEQEIARLVLTDEEKSLLEKEGLILPETLPLTKTEEQILKRVRRKIRNKRSAQESRRKKKVYVGGLESRVLKYTAQNMELQNKVQLLEEQNLSLLDQLRKLQAMVIEISNKTSSSSMYSSDTRGSLPAEHGVLSRQLRALPSEDPYQLELPALQSEVPKDSTHQWLDGSDCVLQAPGNTSCLLHYMPQAPSAEPPLEWPFPDLFSEPLCRGPILPLQANLTRKGGWLPTGSPSVILQDRYSG

System: PPARγ2
Assay: GST / His pull-down and immunoprecipitation of sLZIP with PPARγ2
Format: binding
Method: 293T cells were obtained and washed with cold PBS. The cells were re-suspended in an IP lysis buffer [25 mM of Tris-HCl (pH 7.4), 150 mM of NaCl, 1 mM of EDTA, 1% NP-40 and 5% glycerol, and a protease inhibitor]. A suspension was centrifuged at 16,000×g for 20 minutes at 4° C. Supernatants were collected and incubated with 0.5 μg of appropriate antibodies and 25 μl of protein A/G-agarose or a GST Sepharose 4B bead for 24 hours at 4° C. A protein complex was centrifuged at 1,000×g with a cold IP lysis buffer for 1 minute and washed five times. The final pellet was re-suspended in 50 μl of an SDS-sample buffer containing 5% β-mercaptoethanol and heated for 10 minutes at 100° C. A protein sample was isolated in SDS-PAGE (8 to 10%) and transferred to nitrocellulose membranes. Co-precipitated proteins were detected according to western blotting using specific antibodies.
In order to examine whether the transcriptional activity of PPARγ2 is regulated by interaction with sLZIP, interaction between sLZIP and PPARγ2 was examined. For this purpose, 293T cells were transfected with GST-sLZIP and Myc-PPARγ2. Cell lysates were obtained and GST pull-down analysis was performed using a glutathione 4B bead. A protein complex was analyzed in SDS-PAGE and then immunoblotted with specific antibodies (FIG. 2A). The 293T cells were transfected with GST-PPARγ2 and Flag-sLZIP, and identified according to GST-pull-down analysis (FIG. 2B). PPARγ2 was translated in vitro by a TNT translation system (Promega). His-sLZIP proteins were expressed in BL21 cells using an IPTG-inducement system. Purified His-sLZIP proteins were subjected to His pull-down analysis. Proteins bound to the bead were analyzed in SDS-PAGE, and then immunoblotted with anti-PPARγ2 and anti-His antibodies (FIG. 2C). GFP-PPARγ2 and Flag-sLZIP constructs were expressed in C3H10T1/2 cells, and analyzed using mouse anti-Flag and Texas Red-labeled anti-mouse antibodies under a fluorescence microscope. The nucleus was stained with DAPI (FIG. 2D).
Activation of many nuclear receptors depends on a supplement of coactivators. Therefore, a domain of sLZIP necessary for binding with PPARγ2 was examined. For this purpose, 293T cells were transfected with GST-full length sLZIP (1-354), N-terminal deletion mutant sLZIP (1-228), C-terminal deletion mutant sLZIP (229-354), CC-terminal deletion mutant sLZIP (297-354) and PPARγ2. Cell lysates were obtained and GST pull-down analysis was performed using a glutathione 4B bead. A protein complex was analyzed in SDS-PAGE, and then immunoblotted with specific antibodies (FIG. 3A). 293T cells were transfected with Flag-full length PPARγ2, full length PPARγ2, N-terminal deletion mutant PPARγ2 (1-310), C-terminal deletion mutants PPARγ2 (139-505) and GST-sLZIP. Cell lysates were obtained and GST pull-down analysis was performed. A protein complex was analyzed in SDS-PAGE, and then immunoblotted with anti-GST and anti-Flag antibodies (FIG. 3B).
For this purpose, 293T cells were transfected with GST-PPARγ2 and Flag-sLZIP and were treated or not treated with 10 nM of RZD for 24 hours. Cell lysates were obtained and GST pull-down analysis (FIG. 5A) and immunoprecipitation (FIG. 5B) were performed using a glutathione 4B bead. A protein complex was analyzed in SDS-PAGE, and immunoblotted with anti-GST and anti-Flag antibodies. GST-PARγ2 and Flag-sLZIP were expressed in the 293T cells, and the cells were treated with 10 nM of RZD according to time of day. The cell lysates were GST pull-down analyzed (FIG. 5C). 293T cells were transfected with GST-HDAC3 and Flag-sLZIP, and treated or not treated with 10 nM of RZD for 24 hours. The cell lysates were GST pull-down analyzed (FIG. 5D). Flag-sLZIP was expressed in the 293T cells, and the cells were treated with 10 nM of RZD for 24 hours. Immunoprecipitation analysis of the cell lysates was performed using anti-NCoR1 antibodies. […]

[1] = GST pull-down, transfected 293T cells

Molecule	interaction with PPARγ2 [1]	interaction with PPARγ2 (GST pull-down, transfected 293T cells, listed as wild type sLZIP)	direct interaction with PPARγ2 (His pull-down, purified His-sLZIP and in vitro translated PPARγ2)	interaction with PPARγ2 (ligand treated (10 nM RZD), GST pull-down or immunoprecipitation)	interaction with PPARγ2 (no stimulation with a ligand, GST pull-down)
B1	not interacted with PPARγ2	–	–	–	–
B2	PPARγ2 interacted with sLZIP	interacted with PPARγ2	directly bound	dissociated from sLZIP; also recorded: dissociated from PPARγ2 in a time-dependent manner	interacted with PPARγ2
